Laboratory results reported in PMC10397247.
Values belong to the binder of their own block, whether it stands above or below them.

Columns and labels:
P3A-bN = biological target: T1, P3A-bN; assay: two-hybrid library CCNG1;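 also: natural log of median RNA to DNA barcode read ratio; higher means stronger binding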
T1 chain: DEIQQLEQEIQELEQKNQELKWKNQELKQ

P4A-bN = biological target: T2, P4A-bN; assay: two-hybrid library CCNG1;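 also: natural log of median RNA to DNA barcode read ratio; higher means stronger binding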
T2 chain: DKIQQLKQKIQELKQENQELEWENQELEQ

P5A-bN = biological target: T3, P5A-bN; assay: two-hybrid library CCNG1;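 also: natural log of median RNA to DNA barcode read ratio; higher means stronger binding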
T3 chain: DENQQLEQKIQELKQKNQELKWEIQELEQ

P6A-bN = biological target: T4, P6A-bN; assay: two-hybrid library CCNG1;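 also: natural log of median RNA to DNA barcode read ratio; higher means stronger binding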
T4 chain: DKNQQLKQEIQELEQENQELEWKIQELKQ

P7A-bN = biological target: T5, P7A-bN; assay: two-hybrid library CCNG1;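 also: natural log of median RNA to DNA barcode read ratio; higher means stronger binding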
T5 chain: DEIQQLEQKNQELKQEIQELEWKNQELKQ

P8A-bN = biological target: T6, P8A-bN; assay: two-hybrid library CCNG1;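 also: natural log of median RNA to DNA barcode read ratio; higher means stronger binding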
T6 chain: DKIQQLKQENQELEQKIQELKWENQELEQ

P9A-bN = biological target: T7, P9A-bN; assay: two-hybrid library CCNG1
T7 chain: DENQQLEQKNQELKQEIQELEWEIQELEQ

4H2444-bN = biological target: T8, 4H2444-bN; assay: two-hybrid library CCNG1
T8 chain: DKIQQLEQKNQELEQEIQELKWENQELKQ

4H2518-bN = biological target: T9, 4H2518-bN; assay: two-hybrid library CCNG1
T9 chain: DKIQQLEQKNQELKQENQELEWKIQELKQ

4H2585-bN = biological target: T10, 4H2585-bN; assay: two-hybrid library CCNG1
T10 chain: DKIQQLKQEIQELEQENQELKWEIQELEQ

4H264-bN = biological target: T11, 4H264-bN; assay: two-hybrid library CCNG1
T11 chain: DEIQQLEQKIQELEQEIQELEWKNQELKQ

4H2760-bN = biological target: T12, 4H2760-bN; assay: two-hybrid library CCNG1
T12 chain: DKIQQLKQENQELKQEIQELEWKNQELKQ

4H2859-bN = biological target: T13, 4H2859-bN; assay: two-hybrid library CCNG1
T13 chain: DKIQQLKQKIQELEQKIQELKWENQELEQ

4H2931-bN = biological target: T14, 4H2931-bN; assay: two-hybrid library CCNG1
T14 chain: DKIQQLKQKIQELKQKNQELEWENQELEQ

4H3041-bN = biological target: T15, 4H3041-bN; assay: two-hybrid library CCNG1
T15 chain: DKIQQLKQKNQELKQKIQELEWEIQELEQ

4H3297-bN = biological target: T16, 4H3297-bN; assay: two-hybrid library CCNG1
T16 chain: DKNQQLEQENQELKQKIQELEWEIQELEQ

4H3364-bN = biological target: T17, 4H3364-bN; assay: two-hybrid library CCNG1
T17 chain: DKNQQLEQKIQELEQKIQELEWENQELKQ

4H3381-bN = biological target: T18, 4H3381-bN; assay: two-hybrid library CCNG1
T18 chain: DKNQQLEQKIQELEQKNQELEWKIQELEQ

4H349-bN = biological target: T19, 4H349-bN; assay: two-hybrid library CCNG1
T19 chain: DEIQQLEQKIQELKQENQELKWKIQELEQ

4H56-bN = biological target: T20, 4H56-bN; assay: two-hybrid library CCNG1
T20 chain: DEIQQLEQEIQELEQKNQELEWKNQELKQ

4H730-bN = biological target: T21, 4H730-bN; assay: two-hybrid library CCNG1
T21 chain: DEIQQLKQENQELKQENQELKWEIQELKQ

4H796-bN = biological target: T22, 4H796-bN; assay: two-hybrid library CCNG1
T22 chain: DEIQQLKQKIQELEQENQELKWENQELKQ

4H932-bN = biological target: T23, 4H932-bN; assay: two-hybrid library CCNG1
T23 chain: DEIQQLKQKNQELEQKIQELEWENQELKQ

4H949-bN = biological target: T24, 4H949-bN; assay: two-hybrid library CCNG1
T24 chain: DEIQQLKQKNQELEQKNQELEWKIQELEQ

4H2211-AA = biological target: T25, 4H2211-AA; assay: two-hybrid library CCmax
T25 chain: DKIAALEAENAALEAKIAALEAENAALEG

4H2238-AA = biological target: T26, 4H2238-AA; assay: two-hybrid library CCmax; settings: mean of both orientations
T26 chain: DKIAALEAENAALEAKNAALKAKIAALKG

4H2513-AA = biological target: T27, 4H2513-AA; assay: two-hybrid library CCmax; settings: mean of both orientations
T27 chain: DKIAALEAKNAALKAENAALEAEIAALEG

4H2536-AA = biological target: T28, 4H2536-AA; assay: two-hybrid library CCmax; settings: mean of both orientations
T28 chain: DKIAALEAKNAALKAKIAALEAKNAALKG

4H2608-AA = biological target: T29, 4H2608-AA; assay: two-hybrid library CCmax; settings: mean of both orientations
T29 chain: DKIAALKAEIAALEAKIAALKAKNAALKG

4H2614-AA = biological target: T30, 4H2614-AA; assay: two-hybrid library CCmax; settings: mean of both orientations
T30 chain: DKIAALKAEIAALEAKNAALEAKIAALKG

4H2726-AA = biological target: T31, 4H2726-AA; assay: two-hybrid library CCmax; settings: mean of both orientations
T31 chain: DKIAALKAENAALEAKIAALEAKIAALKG

4H2935-AA = biological target: T32, 4H2935-AA; assay: two-hybrid library CCmax; settings: mean of both orientations
T32 chain: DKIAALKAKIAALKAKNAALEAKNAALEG

4H327-AA = biological target: T33, 4H327-AA; assay: two-hybrid library CCmax; settings: mean of both orientations
T33 chain: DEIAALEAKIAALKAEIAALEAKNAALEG

4H3605-AA = biological target: T34, 4H3605-AA; assay: two-hybrid library CCmax; settings: mean of both orientations
T34 chain: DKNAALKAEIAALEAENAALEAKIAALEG

4H3625-AA = biological target: T35, 4H3625-AA; assay: two-hybrid library CCmax; settings: mean of both orientations
T35 chain: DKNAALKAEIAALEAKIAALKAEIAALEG

4H3664-AA = biological target: T36, 4H3664-AA; assay: two-hybrid library CCmax; settings: mean of both orientations
T36 chain: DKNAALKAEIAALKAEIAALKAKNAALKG

4H369-AA = biological target: T37, 4H369-AA; assay: two-hybrid library CCmax; settings: mean of both orientations
T37 chain: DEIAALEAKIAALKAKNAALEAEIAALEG

4H3922-AA = biological target: T38, 4H3922-AA; assay: two-hybrid library CCmax; settings: mean of both orientations
T38 chain: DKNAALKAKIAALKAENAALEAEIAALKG

4H4033-AA = biological target: T39, 4H4033-AA; assay: two-hybrid library CCmax; settings: mean of both orientations
T39 chain: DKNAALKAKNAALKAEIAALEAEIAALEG

4H481-AA = biological target: T40, 4H481-AA; assay: two-hybrid library CCmax; settings: mean of both orientations
T40 chain: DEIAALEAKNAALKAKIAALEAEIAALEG

4H55-AA = biological target: T41, 4H55-AA; assay: two-hybrid library CCmax; settings: mean of both orientations
T41 chain: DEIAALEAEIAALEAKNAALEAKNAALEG

4H662-AA = biological target: T42, 4H662-AA; assay: two-hybrid library CCmax; settings: mean of both orientations
T42 chain: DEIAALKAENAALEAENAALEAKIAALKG

interaction score (P3A-bN): -0.693
interaction score (P4A-bN): 1.79
interaction score (P5A-bN): -1.91
interaction score (P6A-bN): 0.0905
interaction score (P7A-bN): 0.502
interaction score (P8A-bN): -0.0492
interaction score (P9A-bN): 0.0484
Binder: DEIQQLEQEIQELEQKNQELKWKNQELKQ [P3A-bN]

interaction score (4H2444-bN): 1.34
interaction score (4H2518-bN): -0.0731
interaction score (4H2585-bN): -0.578
interaction score (4H264-bN): 0.471
interaction score (4H2760-bN): -0.126
interaction score (4H2859-bN): 0.194
interaction score (4H2931-bN): -0.103
interaction score (4H3041-bN): 0.447
interaction score (4H3297-bN): -0.0483
interaction score (4H3364-bN): -0.17
interaction score (4H3381-bN): 0.0258
interaction score (4H349-bN): -0.375
interaction score (4H56-bN): 0.273
interaction score (4H730-bN): -0.506
interaction score (4H796-bN): -0.0985
interaction score (4H932-bN): 0.018
interaction score (4H949-bN): -0.477
Binder: DKIQQLEQKNQELEQEIQELKWENQELKQ [4H2444-bN]

interaction score (4H2211-AA): -0.565
interaction score (4H2238-AA): -1.07
interaction score (4H2513-AA): -1.48
interaction score (4H2536-AA): 1.92
interaction score (4H2608-AA): -0.966
interaction score (4H2614-AA): -1.44
interaction score (4H2726-AA): 0.569
interaction score (4H2935-AA): -1.25
interaction score (4H327-AA): -1.1
interaction score (4H3605-AA): -1.6
interaction score (4H3625-AA): -1.16
interaction score (4H3664-AA): -1.82
interaction score (4H369-AA): -1.37
interaction score (4H3922-AA): -1.15
interaction score (4H4033-AA): -1.42
interaction score (4H481-AA): 1.2
interaction score (4H55-AA): -1.44
interaction score (4H662-AA): -1.54
Binder: DKIAALEAENAALEAKIAALEAENAALEG [4H2211-AA]
